Data: US20040136985A1, “Methods of modifying behavior of CD9-expressing cells” (priority 2002, published 2004)
Where “and” joins values, the source holds several entries; their conditions need not be identical. Identical values can stand only once.

Tests used:
[1] = biological target: His6-rCD9 (human) (UniProt P21926); assay: ELISA, FN titrated on immobilized His6-rCD9, 2.5 mM Ca2+
[2] = biological target: peptide 6 (human); assay: ELISA, FN 75 µg/ml on immobilized peptide (10 µM coat)
[3] = biological target: peptide 5 (human); assay: as above
Sequence of peptide 5 (human) (chain, as listed by the source): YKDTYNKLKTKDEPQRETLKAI

[4] = biological target: His6-rCD9 (human) (UniProt P21926); assay: ELISA, absolute values, FN on immobilized His6-rCD9
[5] = biological target: purified platelet CD9 (human) (UniProt P21926); assay: ELISA, FN titrated on immobilized platelet CD9, 2.5 mM CaCl2
Sequence of purified platelet CD9 (human) (P21926 2-228 limits assumed): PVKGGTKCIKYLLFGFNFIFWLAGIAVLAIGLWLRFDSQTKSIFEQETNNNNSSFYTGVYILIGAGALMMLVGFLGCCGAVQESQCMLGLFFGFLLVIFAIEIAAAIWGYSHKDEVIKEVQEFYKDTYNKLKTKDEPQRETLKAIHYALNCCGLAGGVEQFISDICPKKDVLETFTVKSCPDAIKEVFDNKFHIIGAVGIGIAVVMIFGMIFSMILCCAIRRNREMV

[6] = biological target: hamster integrin α5β1 on CHO cells (hamster); assay: flow cytometry, CD9-CHO-K1 cells
[7] = biological target: hamster integrin α5β1 on CHO cells (hamster); assay: flow cytometry, MOCK-CHO-K1 cells
[8] = biological target: hamster integrin subunit β1 on CHO cells (hamster); assay: flow cytometry, CD9-CHO-K1 cells
[9] = biological target: hamster integrin subunit β1 on CHO cells (hamster); assay: flow cytometry, MOCK-CHO-K1 cells
[10] = biological target: hamster integrin subunit β1 on CHO cells (hamster); assay: flow cytometry, CD9-CHO-B2 cells
[11] = biological target: hamster integrin subunit β1 on CHO cells (hamster); assay: flow cytometry, MOCK-CHO-B2 cells

Sequence of human plasma fibronectin, P02751 32-2296 (ligand) (P02751 other isoform, or with tags, fused parts or gaps limits assumed): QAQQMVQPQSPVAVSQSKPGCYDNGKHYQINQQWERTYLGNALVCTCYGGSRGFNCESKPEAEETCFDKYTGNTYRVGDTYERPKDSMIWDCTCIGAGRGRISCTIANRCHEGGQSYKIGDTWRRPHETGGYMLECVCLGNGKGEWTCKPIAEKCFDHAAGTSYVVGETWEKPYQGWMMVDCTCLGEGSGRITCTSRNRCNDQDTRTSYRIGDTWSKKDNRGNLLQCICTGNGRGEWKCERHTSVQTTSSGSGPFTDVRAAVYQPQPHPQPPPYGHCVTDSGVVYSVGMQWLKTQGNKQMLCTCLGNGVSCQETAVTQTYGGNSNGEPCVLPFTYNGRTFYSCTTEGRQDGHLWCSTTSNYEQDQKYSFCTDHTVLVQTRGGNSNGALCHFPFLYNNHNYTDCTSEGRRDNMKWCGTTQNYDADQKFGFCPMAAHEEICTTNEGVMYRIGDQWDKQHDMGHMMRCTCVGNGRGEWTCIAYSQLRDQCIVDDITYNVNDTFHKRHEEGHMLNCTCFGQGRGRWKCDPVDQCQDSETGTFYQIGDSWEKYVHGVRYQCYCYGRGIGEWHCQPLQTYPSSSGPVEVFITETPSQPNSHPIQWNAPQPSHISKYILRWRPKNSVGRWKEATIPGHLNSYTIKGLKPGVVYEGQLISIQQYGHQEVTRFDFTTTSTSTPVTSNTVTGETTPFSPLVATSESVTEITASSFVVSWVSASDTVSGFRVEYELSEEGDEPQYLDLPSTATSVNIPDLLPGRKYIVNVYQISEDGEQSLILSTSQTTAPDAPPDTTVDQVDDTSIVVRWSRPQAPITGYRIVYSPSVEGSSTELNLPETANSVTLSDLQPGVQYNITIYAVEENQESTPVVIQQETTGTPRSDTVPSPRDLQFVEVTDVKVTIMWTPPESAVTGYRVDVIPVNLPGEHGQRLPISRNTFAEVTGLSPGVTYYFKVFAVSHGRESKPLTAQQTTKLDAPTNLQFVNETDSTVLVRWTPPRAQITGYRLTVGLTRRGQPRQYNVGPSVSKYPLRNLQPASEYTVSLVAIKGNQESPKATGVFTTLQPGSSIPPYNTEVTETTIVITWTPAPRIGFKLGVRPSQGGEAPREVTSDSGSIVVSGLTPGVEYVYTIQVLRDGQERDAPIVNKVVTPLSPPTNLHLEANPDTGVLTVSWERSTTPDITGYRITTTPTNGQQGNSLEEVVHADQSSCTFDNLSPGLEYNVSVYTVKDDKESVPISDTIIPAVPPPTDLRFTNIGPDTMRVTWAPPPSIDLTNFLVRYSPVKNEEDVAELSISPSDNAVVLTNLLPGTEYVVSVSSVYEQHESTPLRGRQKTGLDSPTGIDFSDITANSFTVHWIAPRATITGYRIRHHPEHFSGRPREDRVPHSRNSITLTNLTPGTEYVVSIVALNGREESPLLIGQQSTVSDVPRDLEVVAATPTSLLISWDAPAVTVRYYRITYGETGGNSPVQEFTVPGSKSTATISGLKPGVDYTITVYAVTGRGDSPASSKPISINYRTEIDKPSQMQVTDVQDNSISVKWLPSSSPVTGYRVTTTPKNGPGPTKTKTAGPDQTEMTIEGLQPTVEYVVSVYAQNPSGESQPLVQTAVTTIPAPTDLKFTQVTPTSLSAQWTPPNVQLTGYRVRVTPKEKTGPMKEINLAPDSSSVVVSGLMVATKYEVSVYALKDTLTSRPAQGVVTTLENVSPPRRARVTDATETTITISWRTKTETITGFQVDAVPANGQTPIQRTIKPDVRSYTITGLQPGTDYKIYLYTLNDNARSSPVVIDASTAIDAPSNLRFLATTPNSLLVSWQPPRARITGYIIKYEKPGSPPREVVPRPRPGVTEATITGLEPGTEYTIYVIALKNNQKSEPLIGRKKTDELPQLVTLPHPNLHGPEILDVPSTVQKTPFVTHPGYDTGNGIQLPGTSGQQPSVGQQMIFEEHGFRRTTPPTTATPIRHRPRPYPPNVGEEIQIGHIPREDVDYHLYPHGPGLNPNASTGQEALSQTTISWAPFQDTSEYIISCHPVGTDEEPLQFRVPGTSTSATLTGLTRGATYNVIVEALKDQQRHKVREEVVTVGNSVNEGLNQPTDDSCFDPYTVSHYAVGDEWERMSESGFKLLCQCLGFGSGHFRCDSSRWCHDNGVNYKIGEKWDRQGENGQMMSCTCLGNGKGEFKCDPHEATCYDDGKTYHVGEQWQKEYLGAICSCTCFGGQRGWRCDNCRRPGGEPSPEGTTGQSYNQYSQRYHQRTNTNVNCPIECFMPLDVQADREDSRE
Sequence of His6-rCD9 (human) (P21926 whole entry): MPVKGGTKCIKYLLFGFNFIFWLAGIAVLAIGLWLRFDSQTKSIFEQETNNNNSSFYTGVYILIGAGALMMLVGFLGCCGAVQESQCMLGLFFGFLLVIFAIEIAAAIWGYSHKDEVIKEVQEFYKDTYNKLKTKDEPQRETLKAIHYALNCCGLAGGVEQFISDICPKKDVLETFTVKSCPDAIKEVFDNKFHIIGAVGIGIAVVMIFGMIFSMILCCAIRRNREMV
Sequence of peptide 6 (human) (chain, as listed by the source): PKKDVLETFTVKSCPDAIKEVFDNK

An EC50 [1] of 120 nM, a binding relative to intact platelet purified CD9 (% of binding to platelet CD9) [2] of 65 and a binding relative to intact platelet purified CD9 (% of binding to platelet CD9) [3] of 19 were found for “human plasma fibronectin, P02751 32-2296 (ligand)” in this work. The ELISA binding against purified CD9 (% lower than purified CD9) [4] was 40 and the EC50 [5] was 35.6 µg/mL and 81 nM.
A % positive [6] of 98%, a Fold-increase (over isotype control) (fold MFI over isotype control) [6] of 4 and a % positive [7] of 100% were found for antibody PB1 in this work. It also gave a Fold-increase (over isotype control) (fold MFI over isotype control) [7] of 4.
A % positive [8] of 97%, a Fold-increase (over isotype control) (fold MFI over isotype control) [8] of 6 and a % positive [9] of 100% were found for antibody 7E2 in this work. It also gave a Fold-increase (over isotype control) (fold MFI over isotype control) [9] of 7, a % positive [10] of 100% and a Fold-increase (over isotype control) (fold MFI over isotype control) [10] of 6. For the same substance, the % positive [11] was 100% and the Fold-increase (over isotype control) (fold MFI over isotype control) [11] was 0.
